We go through three molecules from patent US20250163160A1 (Amgen, published 2025).

Changes are numbered by the printed parent chain. Names and notes keep the numbering of the source.

Test [1] deals with T1, human FGF21 receptor (FGF21R): full length human FGFR1c and full length human β-Klotho co-expressed on cells (human, UniProt P11362 22-822; Q86Z14 53-1044). Nature of the test: cell-based or functional assay.
Test [2] deals with T1, human FGF21 receptor (FGF21R): full …. Nature of the test: cell-based or functional assay. The source holds these as a separate data set.

B1: Fibroblast Growth Factor 21 (FGF21), human (ligand)
chain: HPIPDSSPLLQFGGQVRQRYLYTDDAQQTEAHLEIREDGTVGGAADQSPESLLQLKALKPGVIQILGVKTSRFLCQRPDGALYGSLHFDPEACSFRELLLEDGYNVYQSEAHGLPLHLPGNKSPHRDPAPRGPARFLPLPGLPPAPPEPPGILAPQPPDVGSSDPLSMVGPSQGRSPSYAS
modifications: Alexa 647-NHS label (Example 1); biotin (Example 8, second Biacore analysis)
Turning to B1, the “EC50 (read off the curve); luciferase reporter (RLU) in AM-1/D FGFR1c+β-Klotho Luc cells, FGF21 alone (0 nM 39F11)” value in test [1] lay in the range of 1 to 2 nM.

B2: 16H7 variant, heavy chain H3, light chain D49A (antibody, human IgG2, lambda, V domains shown)
VH: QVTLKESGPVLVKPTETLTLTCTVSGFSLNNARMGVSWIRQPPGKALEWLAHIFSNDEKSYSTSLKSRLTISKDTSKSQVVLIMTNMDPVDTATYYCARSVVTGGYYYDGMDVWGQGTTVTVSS
VL: SYVLTQPPSVSVAPGQTARITCGGNNIGSESVHWYQQKPGQAPVLVVYADSDRPSGIPERFSGSNSGNTATLTISRVEAGDEADYYCQVWDGNSDHVVFGGGTKLTVLG
Regarding B2, the “EC50 (nM), Erk-phosphorylation, human adipocyte assay” value in test [2] came out at 0.63 nM.

B3: 16H7 variant, heavy chain H3, light chain D91A (antibody, human IgG2, lambda, V domains shown)
VH: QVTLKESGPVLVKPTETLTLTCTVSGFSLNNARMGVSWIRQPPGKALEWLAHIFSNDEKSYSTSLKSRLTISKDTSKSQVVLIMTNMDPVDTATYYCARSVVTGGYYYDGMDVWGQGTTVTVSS
VL: B2 VL with A49D, D91A
As for B3, in test [2], the “EC50 (nM), Erk-phosphorylation, human adipocyte assay” value was found to be 1.3 nM.
